{
  "source": "paper PMC3364216",
  "about": "“The RuvA Homologues from Mycoplasma genitalium and Mycoplasma pneumoniae Exhibit Unique Functional Characteristics”",
  "binders": {"B1": {"name": "HJ 1.1 (structured_DNA)", "DNA 1": "GCGACGTGATCACCAGATGATTGCTAGGCATGCTTTCCGCAAGAGAAGC", "DNA 2": "GGCTTCTCTTGCGGAAAGCATGCCTAGCAATCCTGTCAGCTGCATGGAAC", "DNA 3": "GGTTCCATGCAGCTGACAGGATTGCTAGGCTCAAGGCGAACTGCTAACGG", "DNA 4": "ACCGTTAGCAGTTCGCCTTGAGCCTAGCAATCATCTGGTGATCACGTCGC"}, "B2": {"name": "HJ11/HJ11rv (dsDNA)", "DNA 1": "B1 DNA 1", "DNA 2": "GGCTTCTCTTGCGGAAAGCATGCCTAGCAATCATCTGGTGATCACGTCGC"}, "B3": {"name": "HJ11 (ssDNA)", "DNA": "B1 DNA 1"}},
  "key": {"[1]": {"biological_target": "RecUMge (Mycoplasma genitalium, UniProt Q49422 1-166)", "assay": "EMSA; on ice, no BSA; three major and one minor complex at 500 nM; 20 mM Tris-HCl pH 7.5, 1 mM DTT, 1 mM EDTA, 12.3 nM DNA, 10 ul, on ice 10 min; 8% PAGE in 0.5x TBE; +/- 10 mM Mg2+"}, "[2]": {"biological_target": "T1, RuvAMge (Mycoplasma genitalium G37 (ATCC 33530), UniProt Q49424 1-205)", "assay": "EMSA; no Mg2+; single complex up to 4 uM protein; 20 mM Tris-HCl pH 7.5, 1 mM DTT, 1 mM EDTA, 12.3 nM DNA, 10 ul, on ice 10 min; 8% PAGE in 0.5x TBE; +/- 10 mM Mg2+", "conditions": "protein: recombinant; tags: N-terminal H10 (pET-16b); chain copies: 4; four-way Holliday junction HJ11:HJ12:HJ13:HJ14"}, "[3]": {"biological_target": "T2, RuvAMpn (Mycoplasma pneumoniae M129 (ATCC 29342), UniProt P75243 1-206)", "T2 sequence": "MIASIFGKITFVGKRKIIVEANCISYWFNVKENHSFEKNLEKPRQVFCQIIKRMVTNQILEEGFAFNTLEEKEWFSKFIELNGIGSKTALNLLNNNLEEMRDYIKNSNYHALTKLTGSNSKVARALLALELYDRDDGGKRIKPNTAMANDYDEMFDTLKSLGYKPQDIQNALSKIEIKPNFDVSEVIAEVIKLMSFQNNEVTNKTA", "assay": "EMSA; no Mg2+; two complexes (I and II); 20 mM Tris-HCl pH 7.5, 1 mM DTT, 1 mM EDTA, 12.3 nM DNA, 10 ul, on ice 10 min; 8% PAGE in 0.5x TBE; +/- 10 mM Mg2+", "conditions": "protein: recombinant; tags: N-terminal H10 (pET-16b); chain copies: 4; four-way Holliday junction HJ11:HJ12:HJ13:HJ14"}, "[4]": {"biological_target": "T2, RuvAMpn", "assay": "EMSA; no Mg2+; part of the complexes is with residual ss HJ11; 20 mM Tris-HCl pH 7.5, 1 mM DTT, 1 mM EDTA, 12.3 nM DNA, 10 ul, on ice 10 min; 8% PAGE in 0.5x TBE; +/- 10 mM Mg2+", "conditions": "protein: recombinant; tags: N-terminal H10 (pET-16b); chain copies: 4; 5' overhang 1 nt on HJ11rv"}, "[5]": {"biological_target": "T1, RuvAMge", "assay": "EMSA; no Mg2+; part of the complexes is with residual ss HJ11; 20 mM Tris-HCl pH 7.5, 1 mM DTT, 1 mM EDTA, 12.3 nM DNA, 10 ul, on ice 10 min; 8% PAGE in 0.5x TBE; +/- 10 mM Mg2+", "conditions": "protein: recombinant; tags: N-terminal H10 (pET-16b); chain copies: 4; 5' overhang 1 nt on HJ11rv"}, "[6]": {"biological_target": "T2, RuvAMpn", "assay": "EMSA; no Mg2+; efficiency similar to HJ; 20 mM Tris-HCl pH 7.5, 1 mM DTT, 1 mM EDTA, 12.3 nM DNA, 10 ul, on ice 10 min; 8% PAGE in 0.5x TBE; +/- 10 mM Mg2+", "conditions": "protein: recombinant; tags: N-terminal H10 (pET-16b); single strand"}},
  "data": [
    {"binder": "B1", "values": [
      {"measurement": "binding result", "setting": "[1]", "result": "binds"},
      {"measurement": "binding result", "setting": "[2]", "result": "binds"},
      {"measurement": "binding result", "setting": "[3]", "result": "binds"}
    ]},
    {"binder": "B2", "values": [
      {"measurement": "binding result", "setting": "[4]", "result": "binds"},
      {"measurement": "binding result", "setting": "[5]", "result": "binds"}
    ]},
    {"binder": "B3", "values": [
      {"measurement": "binding result", "setting": "[6]", "result": "binds"}
    ]}
  ]
}
